The values below come from patent US20100081200A1, “FORMULATIONS AND METHODS FOR CULTURING STEM CELLS” (priority 2007, published 2010).

For test [1], the system named is embryonic stem cells. The test can be described thus: Effect of lithium chloride on embryonic stem cells. Format: cell-based. The text has this:
Thus, in some specific embodiments, the serum replacement is devoid lithium chloride.

Test [2] relates to embryonic stem cell colonies. Description: Effect of fetuin and α-fetoprotein on growth rate and size of embryonic stem cell colonies. Format: cell-based. As to conditions: human serum albumin 10 mg/ml. Here is the method: All formulations shown contained human serum albumin at a concentration of 10 mg/ml.
The composition of the formulation according to this embodiment of the present invention was further optimized as described above in Table 2.

As to `[Cl-].[Li+]` [lithium chloride], in test [1], the “effect on embryonic stem cells” value is recorded as “may be harmful for embryonic stem cells resulting in differentiation”.

B1: F: Fetuin, commercially available fetal carrier protein (protein, UniProt P12763 19-359, looked up)
Alpha-2-HS-glycoprotein: IPLDPVAGYKEPACDDPDTEQAALAAVDYINKHLPRGYKHTLNQIDSVKVWPRRPTGEVYDIEIDTLETTCHVLDPTPLANCSVRQQTQHAVEGDCDIHVLKQDGQFSVLFTKCDSSPDSAEDVRKLCPDCPLLAPLNDSRVVHAVEVALATFNAESNGSYLQLVEISRAQFVPLPVSVSVEFAVAATDCIAKEVVDPTKCNLLAEKQYGFCKGSVIQKALGGEDVRVTCTLFQTQPVIPQPQPDGAEAEAPSAVPDAAGPTPSAAGPPVASVVVGPSVVAVPLPLHRAHYDLRHTFSGVASVESSSGEAFHVGKTPIVGQPSIPGGPVRLCPGRIRYFKI
Turning to B1, the “concentration that increased colony size and growth rate the most” value in test [2] was 0.1 mg/mL.

B2: A: α-fetoprotein, commercially available fetal carrier protein (protein, UniProt P02771 19-609, looked up)
Alpha-fetoprotein: RTLHRNEYGIASILDSYQCTAEISLADLATIFFAQFVQEATYKEVSKMVKDALTAIEKPTGDEQSSGCLENQLPAFLEELCHEKEILEKYGHSDCCSQSEEGRHNCFLAHKKPTPASIPLFQVPEPVTSCEAYEEDRETFMNKFIYEIARRHPFLYAPTILLWAARYDKIIPSCCKAENAVECFQTKAATVTKELRESSLLNQHACAVMKNFGTRTFQAITVTKLSQKFTKVNFTEIQKLVLDVAHVHEHCCRGDVLDCLQDGEKIMSYICSQQDTLSNKITECCKLTTLERGQCIIHAENDEKPEGLSPNLNRFLGDRDFNQFSSGEKNIFLASFVHEYSRRHPQLAVSVILRVAKGYQELLEKCFQTENPLECQDKGEEELQKYIQESQALAKRSCGLFQKLGEYYLQNAFLVAYTKKAPQLTSSELMAITRKMAATAATCCQLSEDKLLACGEGAADIIIGHLCIRHEMTPVNPGVGQCCTSSYANRRPCFSSLVVDETYVPPAFSDDKFIFHKDLCQAQGVALQTMKQEFLINLVKQKPQITEEQLEAVIADFSGLLEKCCQGQEQEVCFAEEGQKLISKTRAALGV
For the molecule B2, the “concentration that increased colony size and growth rate the most” value in test [2] is 0.05 mg/mL.
